PMC5955458, “Secreted Giardia intestinalis cysteine proteases disrupt intestinal epithelial cell junctional complexes and degrade chemokines” (Virulence, 2018)

What was measured:
[1] = tested on: Cc1cc(=O)oc2cc(NC(=O)[C@H](CCCNC(=N)N)NC(=O)[C@H](Cc3ccccc3)NC(=O)OCc3ccccc3)ccc12; test: purified protein; conditions: 4 mM DTT, 10 mM EDTA
[2] = tested on: Cc1cc(=O)oc2cc(NC(=O)[C@H](CCCNC(=N)N)NC(=O)[C@H](CCCNC(=N)N)NC(=O)OCc3ccccc3)ccc12; test: purified protein; conditions: 4 mM DTT, 10 mM EDTA
[3] = pH 5.5, 37°C, sodium acetate buffer
[4] = pH 6, 37°C, sodium phosphate buffer, pre-activated 120 min at pH 5.5
[5] = pH 5.5, 37°C, sodium acetate buffer, pre-activated 120 min at pH 5.5, pH 5.5
[6] = pH 6, 37°C, sodium phosphate buffer

Question: What does the source list for CP14019 (Giardia lamblia ATCC 50803)?
Answer: Km [1, 3]: 3.17 ± 0.34 µM; kcat/Km [1, 3]: 179000 to 237000 M⁻¹ s⁻¹; Km [2, 3]: 5.11 ± 1.11 µM; kcat/Km [2, 3]: 5410 to 9840 M⁻¹ s⁻¹

Question: Which results are given for CP16160 (Giardia lamblia ATCC 50803)?
Answer: Km [1, 4]: 9.40 ± 1.46 µM; kcat/Km [1, 4]: 43000 to 67700 M⁻¹ s⁻¹; Km [2, 5]: 5.60 ± 1.00 µM; kcat/Km [2, 5]: 58600 to 96100 M⁻¹ s⁻¹

Question: How did the Km [1, 6] turn out when CP16779 (Giardia lamblia ATCC 50803) was run?
Answer: 0.96 ± 0.24 µM

Question: What about the kcat/Km [1, 6] of the same substance?
Answer: 1.02e+06 to 2.06e+06 M⁻¹ s⁻¹

Question: And the Km [2, 6]?
Answer: 5.40 ± 0.75 µM

Question: What about the kcat/Km [2, 6] of the same substance?
Answer: 10500 to 14800 M⁻¹ s⁻¹
